Publication PMC12069552, “Root stem cell homeostasis in Arabidopsis involves cell-type specific transcription factor complexes” (EMBO Reports, 2025)

How the values were obtained:
TPL-mVenus = molecular target: T1, TPL-mVenus (Arabidopsis thaliana, UniProt Q94AI7 1-1131); assay: FRET or BRET; FRET-FLIM in nuclei of transiently expressing N. benthamiana epidermal leaf cells; mVenus fusion as donor, mCherry fusion as acceptor; 'binding' [%] is the amplitude of the FRET component (number of donor molecules undergoing FRET); binding cutoff 10%; a binding not significantly different from the negative control (mCherry-NLS) is regarded as no interaction; settings: partners not purified
T1 construct: TOPLESS (TPL) of Arabidopsis thaliana; the CDS amplified from cDNA; FRET donor; source: N. benthamiana abaxial epidermal leaf cells, transiently expressed (β-estradiol inducible), in cells
T1 sequence (looked up): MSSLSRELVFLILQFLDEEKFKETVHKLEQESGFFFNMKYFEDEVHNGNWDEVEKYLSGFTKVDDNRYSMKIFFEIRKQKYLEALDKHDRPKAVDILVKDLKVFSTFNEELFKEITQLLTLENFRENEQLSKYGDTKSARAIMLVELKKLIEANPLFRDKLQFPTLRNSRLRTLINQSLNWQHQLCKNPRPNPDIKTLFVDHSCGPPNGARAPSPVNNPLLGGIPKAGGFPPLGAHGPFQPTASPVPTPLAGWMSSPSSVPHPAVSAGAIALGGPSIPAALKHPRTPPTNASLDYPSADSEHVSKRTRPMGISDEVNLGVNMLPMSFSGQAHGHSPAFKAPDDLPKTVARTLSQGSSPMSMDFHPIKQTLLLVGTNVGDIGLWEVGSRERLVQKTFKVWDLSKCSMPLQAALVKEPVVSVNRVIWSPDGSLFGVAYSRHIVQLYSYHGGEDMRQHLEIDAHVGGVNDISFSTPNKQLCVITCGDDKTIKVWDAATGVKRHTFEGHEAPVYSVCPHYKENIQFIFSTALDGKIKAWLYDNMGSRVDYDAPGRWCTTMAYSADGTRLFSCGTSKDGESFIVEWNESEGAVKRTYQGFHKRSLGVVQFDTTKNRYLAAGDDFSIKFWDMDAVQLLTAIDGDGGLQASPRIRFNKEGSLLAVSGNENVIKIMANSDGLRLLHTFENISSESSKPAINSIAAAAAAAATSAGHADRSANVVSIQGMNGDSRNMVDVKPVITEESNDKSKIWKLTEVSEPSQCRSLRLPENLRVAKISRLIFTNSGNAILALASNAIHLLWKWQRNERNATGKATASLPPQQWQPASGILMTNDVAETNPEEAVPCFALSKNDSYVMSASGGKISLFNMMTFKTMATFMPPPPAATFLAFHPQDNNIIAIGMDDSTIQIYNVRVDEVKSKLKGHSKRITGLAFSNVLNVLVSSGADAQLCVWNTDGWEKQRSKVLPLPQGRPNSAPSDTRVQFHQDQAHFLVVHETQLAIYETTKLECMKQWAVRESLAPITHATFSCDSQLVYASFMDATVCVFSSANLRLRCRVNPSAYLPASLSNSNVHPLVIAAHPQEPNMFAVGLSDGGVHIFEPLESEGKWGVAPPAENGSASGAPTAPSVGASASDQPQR

[1] = molecular target: BES1D-mVenus (Arabidopsis thaliana) (UniProt Q9LN63); assay: as above
[2] = molecular target: T2, WOX5-mV(N) BRAVO-mV(C) heterodimer (BiFC donor) (Arabidopsis thaliana, UniProt Q8H1D2 1-182; Q6R053 1-323); assay: split reporter (BiFC, NanoBiT) + FRET or BRET; BiFC-FRET-FLIM in nuclei of N. benthamiana epidermal leaf cells; mVenus donor split into mV(N) and mV(C) on two proteins, third protein with mCherry as acceptor; 'binding' [%]; binding cutoff 10%; settings: partners not purified
T2 construct: WUSCHEL-RELATED HOMEOBOX 5 (WOX5) of Arabidopsis thaliana; the CDS, described in Burkart et al, 2022; BRAVO, R2R3-MYB transcription factor of Arabidopsis thaliana; the CDS amplified from cDNA; also called WOX5-mV(N) and BRAVO-mV(C); source: N. benthamiana leaf cells, transiently co-expressed, in cells
T2 sequence (looked up) 1: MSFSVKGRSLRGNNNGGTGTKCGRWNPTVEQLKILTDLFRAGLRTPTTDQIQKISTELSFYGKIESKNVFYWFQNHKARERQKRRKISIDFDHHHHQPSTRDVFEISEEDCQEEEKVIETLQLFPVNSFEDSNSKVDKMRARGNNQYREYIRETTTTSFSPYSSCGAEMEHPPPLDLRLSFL
T2 sequence (looked up) 2: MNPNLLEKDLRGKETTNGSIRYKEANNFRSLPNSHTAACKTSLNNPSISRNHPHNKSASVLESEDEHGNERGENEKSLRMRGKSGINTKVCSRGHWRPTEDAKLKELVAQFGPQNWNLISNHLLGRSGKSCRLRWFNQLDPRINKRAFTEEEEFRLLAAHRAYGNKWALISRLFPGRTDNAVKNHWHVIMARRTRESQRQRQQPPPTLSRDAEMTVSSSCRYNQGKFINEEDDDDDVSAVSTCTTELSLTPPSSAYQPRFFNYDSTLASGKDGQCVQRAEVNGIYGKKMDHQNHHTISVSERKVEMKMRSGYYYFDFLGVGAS

Chain of BES1D-mVenus (Arabidopsis thaliana) (Q9LN63 whole entry): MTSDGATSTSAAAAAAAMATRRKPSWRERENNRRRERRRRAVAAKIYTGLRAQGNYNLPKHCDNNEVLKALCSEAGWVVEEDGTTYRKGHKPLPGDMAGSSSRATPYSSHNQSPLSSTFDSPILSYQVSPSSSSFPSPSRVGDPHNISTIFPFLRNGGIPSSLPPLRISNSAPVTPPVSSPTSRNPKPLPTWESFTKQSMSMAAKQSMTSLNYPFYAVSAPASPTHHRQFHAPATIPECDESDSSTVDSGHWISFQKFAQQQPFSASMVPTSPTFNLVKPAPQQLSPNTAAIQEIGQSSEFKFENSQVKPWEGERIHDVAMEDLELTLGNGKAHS

binding (FRET-FLIM, share of donor molecules undergoing FRET) (TPL-mVenus): 13.5 ± 4.3%
binding (FRET-FLIM, share of donor molecules undergoing FRET) [1]: 16.9%
binding (FRET-FLIM, share of donor molecules undergoing FRET) [2]: 31.5 ± 8.5%
B1: PLT3-mCherry (PLETHORA 3) (natural protein, Arabidopsis thaliana, UniProt Q52QU2 1-581, looked up)
chain: MMAPMTNWLTFSLSPMEMLRSSDQSQFVSYDASSAASSSPYLLDNFYGWSNQKPQEFFKEEAQLAAAASMADSTILTTFVDPQSHHSQNHIPKLEDFLGDSSSIVRYSDNSQTDTQDSSLTQIYDPRHHHNQTGFYSDHHDFKTMAGFQSAFSTNSGSEVDDSASIGRTHLAGDYLGHVVESSGPELGFHGGSTGALSLGVNVNNNTNHRNDNDNHYRGNNNGERINNNNNNDNEKTDSEKEKAVVAVETSDCSNKKIADTFGQRTSIYRGVTRHRWTGRYEAHLWDNSCRREGQARKGRQGGYDKEDKAARAYDLAALKYWNATATTNFPITNYSKEVEEMKHMTKQEFIASLRRKSSGFSRGASIYRGVTRHHQQGRWQARIGRVAGNKDLYLGTFATEEEAAEAYDIAAIKFRGINAVTNFEMNRYDVEAIMKSALPIGGAAKRLKLSLEAAASSEQKPILGHHQLHHFQQQQQQQQLQLQSSPNHSSINFALCPNSAVQSQQIIPCGIPFEAAALYHHHQQQQQHQQQQQQQNFFQHFPANAASDSTGSNNNSNVQGTMGLMAPNPAEFFLWPNQSY
notes: PLETHORA 3 (PLT3), APETALA2-type transcription factor of Arabidopsis thaliana; CDS and construct described in Burkart et al, 2022; FRET acceptor; construct XVE:PLT3-mCherry of Burkart et al, 2022; also called full-length PLT3; source: N. benthamiana abaxial epidermal leaf cells, transiently expressed (β-estradiol inducible), in cells
